In the RNAGym collection of RNA variant scans (doi:10.1093/nar/gkz1192):

B1: CPEB3 Ribozyme (parent)
chain: UAACAGGGGGCCACAGCAGAAGCGUUCACGUCGCAGCCCCUGUCAGAUUCUGGUGAAUCUGCGAAUUCUGCUGUAUAUCUC

Variants of: B1
Test: self-cleavage, relative activity (ratio to wild type); higher = more cleavage; in vitro, sequencing
In short: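 For each CPEB3 ribozyme variant, relative activity is its cleaved/total read fraction divided by the unmutated ribozyme's. Barcoded error-prone PCR libraries were transcribed by T7 RNA polymerase (5 hours, 37°C) and held in DNase I for 15 min before an EDTA stop, with cleavage occurring throughout. Template-switching reverse transcription and Illumina sequencing were used to read the RNAs. A 5-read minimum applied, and results are the mean of three batches.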

With UAACAGGGGGCCACAGCAGAAGCGUUCACGUCGCAGCCUCUGUCAGUUUCUGGUGAAUCUGCGAAUUCUGCUGUAUAUCUC [C39U A47U] as the variant, how does the self-cleavage read?
The self-cleavage was 0.42.

For UAACAGGGGGCCACAGCAGAAGCGUUCACGUCGCAGCCUCUGUCAGAUUCUGGUGGAUCUGCGAAUUCUGCUGUAUAUCUC [C39U A56G], which self-cleavage is on record?
The self-cleavage was 0.48.

Which self-cleavage does the source give for UAACAGGGGGCCACAGCAGAAGCGUUCACGUCGCAGCCUCUGUCAGAUUCUGGUGUAUCUGCGAAUUCUGCUGUAUAUCUC [C39U A56U] here?
The self-cleavage was 0.32.

For UAACAGGGGGCCACAGCAGAAGCGUUCACGUCGCAGCCUCUGUCAGAUUCUGGUGAGUCUGCGAAUUCUGCUGUAUAUCUC [C39U A57G], which self-cleavage is on record?
Its self-cleavage is 0.27.

Which self-cleavage does the source give for UAACAGGGGGCCACAGCAGAAGCGUUCACGUCGCAGCCUCUGUCAGAUUCUGGUGAAUCUGCGUAUUCUGCUGUAUAUCUC [C39U A64U] here?
Its self-cleavage is 0.36.

For UAACAGGGGGCCACAGCAGAAGCGUUCACGUCGCAGCCUCUGUCAGAUUCUGGUGAAUCUGCGAGUUCUGCUGUAUAUCUC [C39U A65G], which self-cleavage is on record?
The self-cleavage was 0.32.

Which self-cleavage does the source give for UAACAGGGGGCCACAGCAGAAGCGUUCACGUCGCAGCCUCUGUCAGAUUCUGGUGAAUCUGCGAAUUCUGCUGUGUAUCUC [C39U A75G] here?
The self-cleavage was 0.97.

For UAACAGGGGGCCACAGCAGAAGCGUUCACGUCGCAGCCUCUGUCAGAUUCUGGUGAAUCUGCGAAUUCUGCUGUAUGUCUC [C39U A77G], which self-cleavage is on record?
The self-cleavage was 0.83.

Which self-cleavage does the source give for UAACAGGGGGCCACAGCAGAAGCGUUCACGUCGCAGCCUCUGUCAGAUUCUGGUGAAUCUGCGAAUUCUGCUGUAUUUCUC [C39U A77U] here?
The self-cleavage was 0.81.

For UAACAGGGGGCCACAGCAGAAGCGUUCACGUCGCAGCCUCUGUCAGAUUCUGGUGAAUCUGAGAAUUCUGCUGUAUAUCUC [C39U C62A], which self-cleavage is on record?
The self-cleavage was 0.35.

Which self-cleavage does the source give for UAACAGGGGGCCACAGCAGAAGCGUUCACGUCGCAGCCUCUGUCAGAUUCUGGUGAAUCUGCGAAUUCUGUUGUAUAUCUC [C39U C71U] here?
The self-cleavage was 0.57.

For UAACAGGGGGCCACAGCAGAAGCGUUCACGUCGCAGCCUCUGUCAGAUUCUGGUGAAUCUGCGAAUUCUGCUGUAUAUUUC [C39U C79U], which self-cleavage is on record?
Its self-cleavage is 1.02.

With UAACAGGGGGCCACAGCAGAAGCGUUCACGUCGCAGCCUCUGUCAUAUUCUGGUGAAUCUGCGAAUUCUGCUGUAUAUCUC [C39U G46U] as the variant, how does the self-cleavage read?
Its self-cleavage is 0.11.

Which self-cleavage does the source give for UAACAGGGGGCCACAGCAGAAGCGUUCACGUCGCAGCCUCAGUCAGAUUCUGGUGAAUCUGCGAAUUCUGCUGUAUAUCUC [C39U U41A] here?
Its self-cleavage is 0.25.

Which self-cleavage does the source give for UAACAGGGGGCCACAGCAGAAGCGUUCACGUCGCAGCCUCUGACAGAUUCUGGUGAAUCUGCGAAUUCUGCUGUAUAUCUC [C39U U43A] here?
The self-cleavage was 1.12.

For UAACAGGGGGCCACAGCAGAAGCGUUCACGUCGCAGCCUCUGCCAGAUUCUGGUGAAUCUGCGAAUUCUGCUGUAUAUCUC [C39U U43C], which self-cleavage is on record?
The self-cleavage was 0.35.

With UAACAGGGGGCCACAGCAGAAGCGUUCACGUCGCAGCCUCUGUCAGACUCUGGUGAAUCUGCGAAUUCUGCUGUAUAUCUC [C39U U48C] as the variant, how does the self-cleavage read?
The self-cleavage was 0.42.

For UAACAGGGGGCCACAGCAGAAGCGUUCACGUCGCAGCCUCUGUCAGAUCCUGGUGAAUCUGCGAAUUCUGCUGUAUAUCUC [C39U U49C], which self-cleavage is on record?
Its self-cleavage is 0.31.

For UAACAGGGGGCCACAGCAGAAGCGUUCACGUCGCAGCCUCUGUCAGAUUCAGGUGAAUCUGCGAAUUCUGCUGUAUAUCUC [C39U U51A], which self-cleavage is on record?
The self-cleavage was 1.06.

Which self-cleavage does the source give for UAACAGGGGGCCACAGCAGAAGCGUUCACGUCGCAGCCUCUGUCAGAUUCGGGUGAAUCUGCGAAUUCUGCUGUAUAUCUC [C39U U51G] here?
Its self-cleavage is 0.89.

For UAACAGGGGGCCACAGCAGAAGCGUUCACGUCGCAGCCUCUGUCAGAUUCUGGAGAAUCUGCGAAUUCUGCUGUAUAUCUC [C39U U54A], which self-cleavage is on record?
Its self-cleavage is 0.95.

With UAACAGGGGGCCACAGCAGAAGCGUUCACGUCGCAGCCUCUGUCAGAUUCUGGUGAACCUGCGAAUUCUGCUGUAUAUCUC [C39U U58C] as the variant, how does the self-cleavage read?
The self-cleavage was 0.3.

With UAACAGGGGGCCACAGCAGAAGCGUUCACGUCGCAGCCUCUGUCAGAUUCUGGUGAAUCAGCGAAUUCUGCUGUAUAUCUC [C39U U60A] as the variant, how does the self-cleavage read?
The self-cleavage was 0.43.

Which self-cleavage does the source give for UAACAGGGGGCCACAGCAGAAGCGUUCACGUCGCAGCCUCUGUCAGAUUCUGGUGAAUCCGCGAAUUCUGCUGUAUAUCUC [C39U U60C] here?
Its self-cleavage is 0.39.

With UAACAGGGGGCCACAGCAGAAGCGUUCACGUCGCAGCCUCUGUCAGAUUCUGGUGAAUCUGCGAACUCUGCUGUAUAUCUC [C39U U66C] as the variant, how does the self-cleavage read?
Its self-cleavage is 0.37.

With UAACAGGGGGCCACAGCAGAAGCGUUCACGUCGCAGCCUCUGUCAGAUUCUGGUGAAUCUGCGAAUCCUGCUGUAUAUCUC [C39U U67C] as the variant, how does the self-cleavage read?
The self-cleavage was 0.21.

With UAACAGGGGGCCACAGCAGAAGCGUUCACGUCGCAGCCUCUGUCAGAUUCUGGUGAAUCUGCGAAUUCAGCUGUAUAUCUC [C39U U69A] as the variant, how does the self-cleavage read?
The self-cleavage was 0.44.

For UAACAGGGGGCCACAGCAGAAGCGUUCACGUCGCAGCCUCUGUCAGAUUCUGGUGAAUCUGCGAAUUCCGCUGUAUAUCUC [C39U U69C], which self-cleavage is on record?
The self-cleavage was 0.32.

Which self-cleavage does the source give for UAACAGGGGGCCACAGCAGAAGCGUUCACGUCGCAGCCUCUGUCAGAUUCUGGUGAAUCUGCGAAUUCUGCAGUAUAUCUC [C39U U72A] here?
The self-cleavage was 0.98.

Which self-cleavage does the source give for UAACAGGGGGCCACAGCAGAAGCGUUCACGUCGCAGCCUCUGUCAGAUUCUGGUGAAUCUGCGAAUUCUGCCGUAUAUCUC [C39U U72C] here?
The self-cleavage was 0.71.

For UAACAGGGGGCCACAGCAGAAGCGUUCACGUCGCAGCCUCUGUCAGAUUCUGGUGAAUCUGCGAAUUCUGCGGUAUAUCUC [C39U U72G], which self-cleavage is on record?
The self-cleavage was 1.06.

Which self-cleavage does the source give for UAACAGGGGGCCACAGCAGAAGCGUUCACGUCGCAGCCUCUGUCAGAUUCUGGUGAAUCUGCGAAUUCUGCUGAAUAUCUC [C39U U74A] here?
Its self-cleavage is 1.08.

With UAACAGGGGGCCACAGCAGAAGCGUUCACGUCGCAGCCUCUGUCAGAUUCUGGUGAAUCUGCGAAUUCUGCUGCAUAUCUC [C39U U74C] as the variant, how does the self-cleavage read?
The self-cleavage was 1.1.

With UAACAGGGGGCCACAGCAGAAGCGUUCACGUCGCAGCCUCUGUCAGAUUCUGGUGAAUCUGCGAAUUCUGCUGUACAUCUC [C39U U76C] as the variant, how does the self-cleavage read?
The self-cleavage was 1.08.
